Results on six molecules are retold here after paper PMC7304070 (Journal of the American Chemical Society, 2020).

Numbered stars: 1 amine (or outer) side, 2 acyl side, 3 side chain; on linkers, the order of the positions; unused ones are H or OH. Bridge positions count the residues as written; N and C are the ends. Square brackets hold non-standard residues; d marks the D form. Ends that are not written are not given here. Bis(1,2,3triazol4ylCH2)ether = c1c(COCc2cn([*:2])nn2)nnn1[*:1]; Aha = [N-]=[N+]=NCC[C@H](N)C(=O)O

The chains are these.
B1: SPD-M3-V1, displayed on the bacterial surface, stabilized (peptide)
chain: VLSF[Aha]DYWNLL[Aha]GS
modifications: triazole 5-12 via Bis(1,2,3triazol4ylCH2)ether
B2: SPD-M3-V1, displayed on the bacterial surface, non-stabilized (peptide)
chain: VLSF[Aha]DYWNLL[Aha]GS
B3: SPD-M3-V1, synthetic, stabilized (peptide)
chain: VLSF[Aha]DYWNLL[Aha]GS-NH2
modifications: triazole 5-12 via Bis(1,2,3triazol4ylCH2)ether
B4: SPD-M3-G1, synthetic, non-stabilized (peptide)
chain: GGTF[Aha]GYWADL[Aha]AF-NH2
B5: SPD-M3-G1, synthetic, stabilized (peptide)
chain: GGTF[Aha]GYWADL[Aha]AF-NH2
modifications: triazole 5-12 via Bis(1,2,3triazol4ylCH2)ether
B6: SPD-M3-V1, synthetic, non-stabilized (peptide)
chain: VLSF[Aha]DYWNLL[Aha]GS-NH2

In the first assay the target is AlexaFluor647 tagged MDM2-GST (UniProt Q00987 1-491, AlexaFluor647 label). Put plainly: flow cytometry on cells.
AlexaFluor647 tagged MDM2-GST, sequence (Q00987 whole entry): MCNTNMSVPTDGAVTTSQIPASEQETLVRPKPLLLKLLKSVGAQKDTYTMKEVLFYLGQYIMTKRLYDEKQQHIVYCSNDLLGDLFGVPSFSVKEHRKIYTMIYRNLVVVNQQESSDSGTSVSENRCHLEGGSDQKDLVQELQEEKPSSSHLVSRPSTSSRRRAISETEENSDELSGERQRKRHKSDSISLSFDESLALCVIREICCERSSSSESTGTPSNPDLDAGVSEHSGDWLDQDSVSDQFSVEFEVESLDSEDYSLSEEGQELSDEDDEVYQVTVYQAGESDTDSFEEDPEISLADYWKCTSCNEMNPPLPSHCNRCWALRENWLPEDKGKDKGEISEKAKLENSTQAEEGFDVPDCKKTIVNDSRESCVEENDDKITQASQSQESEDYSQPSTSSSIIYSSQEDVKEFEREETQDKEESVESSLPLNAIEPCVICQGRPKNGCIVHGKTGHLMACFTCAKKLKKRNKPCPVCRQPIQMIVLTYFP
In the case of B1, the affinity, expressed as Kd, was 9.8 ± 3.4 nM. Still for that read-out and setting: under B2 stands 64 ± 33 nM.

In another assay the target is biotinylated MDM2 truncate (residues 10-118) (UniProt Q00987 10-118, biotin (NHS-PEG4-Biotin)). The experiment in a line: BLI. On the technique in general: BLI is a label-free optical method that tracks binding on a fibre tip over time.
biotinylated MDM2 truncate (residues 10-118), sequence (Q00987 10-118): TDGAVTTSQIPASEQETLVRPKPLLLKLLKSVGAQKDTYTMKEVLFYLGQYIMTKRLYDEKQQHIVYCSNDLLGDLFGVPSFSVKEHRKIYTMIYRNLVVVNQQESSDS
With B3, the Kd (as a rule, the concentration at which binding is half-saturated) was 14 nM. Same read-out and setting: under B4 stands 21 nM; under B5, 5.1 nM; under B6, 131 nM.
